Results taken from the nanobody polyreactivity screen of Harvey et al. (2022).

test: yeast display, Sf9 membrane polyspecificity reagent, FACS + sequencing; frameworks hold sequencing errors
Summary of the method: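 Galactose induction of a Saccharomyces cerevisiae BJ5465 synthetic nanobody display library ran 36–48 hours. The cells were then stained for 1 hour at 4 °C with 10% biotinylated, detergent-solubilized Sf9 membrane reagent, pulled down on streptavidin microbeads and FACS-sorted into low and high (top ~1%) gates on expression and reagent-binding fluorescence. Labels for polyreactivity follow the gate of origin.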

Sequence	polyreactivity (PSR sort gate)
QVQLVESGGGLVQAGGSLRLSCAASGSIFVDYTMGWYRQAPGKERELVAAITYRGTRTYYADSVKGRFTISRDNAKNTVYLQMNSLKPEDTAVYYCNKLYRRYPVPREYDYWGQGTQVSVSS	high polyreactivity
QVQLVESGGGLVQAGGSLRLSCAASGSIFVDYVMVWYRQAPGKERELVAAISGNGGRTYYADSVKGRFTISRDNAKNTVYLQMNSLKPEDTAVYYCAKVRSVTIGRDYWGQGTQVTVSS	high polyreactivity
QVQLVESGGGLVQAGGSLRLSCAASGSIFVFNAMGWYRQAPGKERELVAAITSGGRTYYADSVKGRFTISRDNAKNTVYLQMNSLKPEDTAVYYCAAEFWFFAGWAYEYWGQGTQVTVSS	high polyreactivity
QVQLVESGGGLVQAGGSLRLSCAASGSIFVFNAMGWYRQAPGKERELVADITRRGGSTYYADSVKGRFTISRDNAKNTVYLQMNSLKPEDTAVYYCAAANPRDHRGANDYWGQGTQVTVSS	high polyreactivity
QVQLVESGGGLVQAGGSLRLSCAASGSIFVFYAMGWYRQAPGKEREFVAAMSISGGRTYYADSVKGRFTISRDIAKNTVYLQMNSLKPEDTAVYYCAASRVYTSITLYYWGQGTQVTVSS	high polyreactivity
QVQLVESGGGLVQAGGSLRLSCAASGSIFVGKAMGWYRQAPGKERELVAAISSSGGRTYYADSVKGRFTISRDNAKNTVYLQMNSLKPEDTAVYYCAADVSYKVKSWSVYRYEYWGQGTQVTVSS	high polyreactivity
QVQLVESGGGLVQAGGSLRLSCAASGSIFVGNAMGWYRQAPGKERELVAAISSSGGRTFYADSVKWRFTISRDNAKNTVYLQMNSLKPEDTAVYYCAAVYTHWQQRMDYWGQGTQVTVSS	high polyreactivity
QVQLVESGGGLVQAGGSLRLSCAASGSIFVGNAMGWYRQAPGTERELVAAISSSGGSTYSADSVKGRFTISRDNAKNTVYLQMNSLKPEDTAVYYCAADTYSTSGYYYWGQGTQVTVSS	low polyreactivity
QVQLVESGGGLVQAGGSLRLSCAASGSIFVGNGMGWYRQAPGKERELVAAITFRSGSTYYADSVKGRFTISRDNAKNTVYFQMISMKPEDTAVSYCAADEYYQVYAYDYCGQGTQVTVSS	low polyreactivity
QVQLVESGGGLVQAGGSLRLSCAASGSIFVGNVMGWYRQAPGKERELVAAIRFSGGNTYYADSVKGRFTISRDNAKNTVYLQMNSLKPEDTAVYYCAARYGQGSYPTKYYYWGQGTQVTVSS	high polyreactivity
QVQLVESGGGLVQAGGSLRLSCAASGSIFVGYAMGWYRQAPGKEREFVAAISQRGTRTYYADSVKGRFTISRDNAKNTVYLQMNSLKPEDTAVYYCAARGWDQRSDYWGQGTQVIVSS	high polyreactivity
QVQLVESGGGLVQAGGSLRLSCAASGSIFVGYAMGWYRQAPGKERELVAAISSNGGSTYYADSVKGRFTISRDNAKNTVYLQMNSLKPEDTAVYYCAAGVRRVYASGHGAYGYWGQGTQVTVSS	low polyreactivity
QVQLVESGGGLVQAGGSLRLSCAASGSIFVGYDMGWYRQAPGKERELVAAITGTVSTYYADSVKGRFTISRDNAKNTVYLQMNSLKPEDTAVYYCAAEFVYAYGDGGVYWSWMEYWGQGTQVTVSS	low polyreactivity
QVQLVESGGGLVQAGGSLRLSCAASGSIFVHNAMGWYRQAPGKERELVAAISSNGGRTYYADSVKGRFTISRDNAKNTVYLQMNSLKPEDTAVYYCNAPRFVGLNVYGYDYWGQGTQVTVSS	high polyreactivity
QVQLVESGGGLVQAGGSLRLSCAASGSIFVHNDMGGYRQAPGTERELVATIDSAGGTYYADSVKGRFTISRDNAKYTVYLQMNSLKPEDTAVYYCAAYGPYVLSIYDYWGQGTQVTVSS	low polyreactivity
QVQLVESGGGLVQAGGSLRLSCAASGSIFVHYALGWYRQAPGKERELVAAITVTGGTTYYADSVKGRFTISRDNAKNTVYLQMNSLKPEDTAVYYCATRANDGGWTQFGHGYDYWGQGTQVTVSS	low polyreactivity
